T1: 5-domain TAT10772 (human)
T1 construct: Recombinant portion of the extracellular domain, expressed in CHO cells; also called 5-mucin domain
T1 chain: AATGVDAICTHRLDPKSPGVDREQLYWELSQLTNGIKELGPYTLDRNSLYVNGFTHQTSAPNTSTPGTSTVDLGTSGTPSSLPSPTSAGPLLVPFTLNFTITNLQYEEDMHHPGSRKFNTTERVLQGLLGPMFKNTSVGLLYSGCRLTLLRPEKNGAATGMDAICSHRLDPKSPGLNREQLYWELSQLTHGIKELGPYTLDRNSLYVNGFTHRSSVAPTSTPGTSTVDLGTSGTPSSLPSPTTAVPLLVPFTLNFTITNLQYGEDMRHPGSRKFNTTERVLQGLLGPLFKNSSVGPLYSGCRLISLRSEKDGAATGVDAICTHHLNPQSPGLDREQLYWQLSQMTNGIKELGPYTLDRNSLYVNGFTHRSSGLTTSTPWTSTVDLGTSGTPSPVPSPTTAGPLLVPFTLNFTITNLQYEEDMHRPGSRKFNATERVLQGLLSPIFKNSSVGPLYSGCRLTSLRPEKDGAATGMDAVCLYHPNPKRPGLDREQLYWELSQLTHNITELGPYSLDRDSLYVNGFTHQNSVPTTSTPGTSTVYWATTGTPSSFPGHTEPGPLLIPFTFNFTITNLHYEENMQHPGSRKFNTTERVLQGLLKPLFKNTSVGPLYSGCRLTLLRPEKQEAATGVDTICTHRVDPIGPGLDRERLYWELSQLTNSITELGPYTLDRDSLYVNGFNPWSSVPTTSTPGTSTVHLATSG


What was measured:
[1] = target: T2, CA125, human TAT10772 shed antigen (human, UniProt Q8WXI7 1-14451, limits assumed); test: ELISA, IgG, CA125
T2 construct: domain: entire shed antigen; Bought reagent; also called CA125 polypeptide

TAT10772 polypeptide [2] = target: T3, TAT10772 polypeptide (human); test: ELISA on OVCAR-3 cells, IgG
T3 construct: Cell-surface TAT10772 on engineered PC3 cells (PC3/A5.3B2), OVCAR-3, OVCA-432, SK-OV-3 cells and tumor tissue; also called TAT10772 target polypeptide

5-domain TAT10772 [3] = target: T1, 5-domain TAT10772; test: ELISA, IgG, 5′-domain TAT10772
5-domain TAT10772 [4] = target: T1, 5-domain TAT10772; test: Biacore SPR, 5′-domain TAT10772 over immobilized IgG
TAT10772 polypeptide [5] = target: T3, TAT10772 polypeptide; test: Scatchard analysis, IgG; form of TAT10772 not stated
TAT10772 polypeptide [6] = target: T3, TAT10772 polypeptide; test: Scatchard analysis, IgG
TAT10772 polypeptide [7] = target: T3, TAT10772 polypeptide; test: Western blot, ELISA, FACS of TAT10772-expressing cells and/or immunohistochemistry

Binder | Kd [1] | Kd (TAT10772 polypeptide [2]) | Kd (5-domain TAT10772 [3]) | Kd (5-domain TAT10772 [4]) | koff (5-domain TAT10772 [4]) | kon (5-domain TAT10772 [4]) | Kd (TAT10772 polypeptide [5]) | binding result (TAT10772 polypeptide [6]) | binding result (TAT10772 polypeptide [7])
3A5v1 (SEQ ID NO: 198) (antibody, V domains shown, Humanized IgG) VH: EVQLVESGGGLVQPGGSLRLSCAASGYSITNDYAWNWVRQAPGKGLEWVGYINYSGYTTYNPSLKSRFTISRDTSKNTLYLQMNSLRAEDTAVYYCARWASGLDYWGQGTLVTVSS VL: DIQMTQSPSSLSASVGDRVTITCKASDLIHNWLAWYQQKPGKAPKLLIYGATSLETGVPSRFSGSGSGTDFTLTISSLQPEDFATYYCQQYWTTPFTFGQGTKVEIKR | 0.6 nM | 0.5 nM | 3 nM | 4.8 nM | 0.000178 s⁻¹ | 36900 M⁻¹ s⁻¹ | – | – | –
3A5v6 (SEQ ID NO: 203) (antibody, V domains shown, Humanized IgG) VH: EVQLVESGGGLVQPGGSLRLSCAASGYSITNDYAWNWVRQAPGKGLEWVGYINYSGYTTYNPSLKSRFTISRDTSKNTFYLQMNSLRAEDTAVYYCARWDSGLTYWGQGTLVTVSS VL: DIQMTQSPSSLSASVGDRVTITCKASDLIHNWLAWYQQKPGKAPKLLIYGATSLETGVPSRFSGSGSGTDFTLTISSLQPEDFATYYCQQYWTTPFTFGQGTKVEIKR | 4.4 nM | 0.6 nM | 5.7 nM | – | – | – | – | – | –
3A5v2 (SEQ ID NO: 199) (antibody, V domains shown, Humanized IgG) VH: EVQLVESGGGLVQPGGSLRLSCAASGYSITNDYAWNWVRQAPGKGLEWVGYINYSGYTTYNPSLKSRFTISRDTSKNTFYLQMNSLRAEDTAVYYCARWASGLSHWGQGTLVTVSS VL: DIQMTQSPSSLSASVGDRVTITCKASDLIHNWLAWYQQKPGKAPKLLIYGATSLETGVPSRFSGSGSGTDFTLTISSLQPEDFATYYCQQYWTTPFTFGQGTKVEIKR | 0.8 nM | 0.7 nM | 3.7 nM | 3.6 nM | 0.000121 s⁻¹ | 33400 M⁻¹ s⁻¹ | – | – | –
3A5v4 (SEQ ID NO: 201) (antibody, V domains shown, Humanized IgG) VH: EVQLVESGGGLVQPGGSLRLSCAASGYSITNDYAWNWVRQAPGKGLEWVGYINYSGYTTYNPSLKSRFTISRDTSKNTLYLQMNSLRAEDTAVYYCARWTSGLDYWGQGTLVTVSS VL: DIQMTQSPSSLSASVGDRVTITCKASDLIHNWLAWYQQKPGKAPKLLIYGATSLETGVPSRFSGSGSGTDFTLTISSLQPEDFATYYCQQYWTTPFTFGQGTKVEIKR | 0.3 nM | 0.8 nM | 2.4 nM | – | – | – | – | – | –
3A5v4b 52 (SEQ ID NO: 208) (antibody, V domains shown, Humanized IgG, 3A5.v4 with the CDR-H2 glycosylation site removed at position 52) VH: EVQLVESGGGLVQPGGSLRLSCAASGYSITNDYAWNWVRQAPGKGLEWVGYISYSGYTTYNPSLKSRFTISRDTSKNTLYLQMNSLRAEDTAVYYCARWTSGLDYWGQGTLVTVSS VL: DIQMTQSPSSLSASVGDRVTITCKASDLIHNWLAWYQQKPGKAPKLLIYGATSLETGVPSRFSGSGSGTDFTLTISSLQPEDFATYYCQQYWTTPFTFGQGTKVEIKR | – | – | – | – | – | – | 0.46 nM | – | –
3A5v3 (SEQ ID NO: 200) (antibody, V domains shown, Humanized IgG) VH: EVQLVESGGGLVQPGGSLRLSCAASGYSITNDYAWNWVRQAPGKGLEWVGYINYSGYTTYNPSLKSRFTISRDTSKNTFYLQMNSLRAEDTAVYYCARWASGLSYWGQGTLVTVSS VL: DIQMTQSPSSLSASVGDRVTITCKASDLIHNWLAWYQQKPGKAPKLLIYGATSLETGVPSRFSGSGSGTDFTLTISSLQPEDFATYYCQQYWTTPFTFGQGTKVEIKR | 0.5 nM | 0.2 nM | 1.6 nM | 3.6 nM | 0.00013 s⁻¹ | 36200 M⁻¹ s⁻¹ | – | – | –
3A5.F-graft (SEQ ID NO: 13), IgG (antibody, V domains shown, IgG) VH: EVQLVESGGGLVQPGGSLRLSCAASGYSITNDYAWNWVRQAPGKGLEWVGYINYSGYTTYNPSLKSRFTISRDNSKNTFYLQMNSLRAEDTAVYYCARWDGGLTYWGQGTLVTVSS VL: DIQMTQSPSSLSASVGDRVTITCKASDLIHNWLAWYQQKPGKAPKLLIYGATSLETGVPSRFSGSGSGTDFTLTISSLQPEDFATYYCQQYWTTPFTFGQGTKVEIKR | 51.4 nM | 0.6 nM | 90.3 nM | 10 nM | 0.000292 s⁻¹ | 28500 M⁻¹ s⁻¹ | – | – | –
3A5v1b 54 (SEQ ID NO: 207) (antibody, V domains shown, Humanized IgG, 3A5.v1 with the CDR-H2 glycosylation site removed at position 54) VH: EVQLVESGGGLVQPGGSLRLSCAASGYSITNDYAWNWVRQAPGKGLEWVGYINYAGYTTYNPSLKSRFTISRDTSKNTLYLQMNSLRAEDTAVYYCARWASGLDYWGQGTLVTVSS VL: DIQMTQSPSSLSASVGDRVTITCKASDLIHNWLAWYQQKPGKAPKLLIYGATSLETGVPSRFSGSGSGTDFTLTISSLQPEDFATYYCQQYWTTPFTFGQGTKVEIKR | – | – | – | – | – | – | 0.37 nM | – | –
3A5.L-graft (SEQ ID NO: 12), IgG (antibody, V domains shown, IgG) VH: EVQLVESGGGLVQPGGSLRLSCAASGYSITNDYAWNWVRQAPGKGLEWVGYINYSGYTTYNPSLKSRFTISRDNSKNTLYLQMNSLRAEDTAVYYCARWDGGLTYWGQGTLVTVSS VL: DIQMTQSPSSLSASVGDRVTITCKASDLIHNWLAWYQQKPGKAPKLLIYGATSLETGVPSRFSGSGSGTDFTLTISSLQPEDFATYYCQQYWTTPFTFGQGTKVEIKR | – | 7.1 nM | – | – | – | – | – | – | –
3A5v1b 52 (SEQ ID NO: 206) (antibody, V domains shown, Humanized IgG, 3A5.v1 with the CDR-H2 glycosylation site removed at position 52) VH: EVQLVESGGGLVQPGGSLRLSCAASGYSITNDYAWNWVRQAPGKGLEWVGYISYSGYTTYNPSLKSRFTISRDTSKNTLYLQMNSLRAEDTAVYYCARWASGLDYWGQGTLVTVSS VL: DIQMTQSPSSLSASVGDRVTITCKASDLIHNWLAWYQQKPGKAPKLLIYGATSLETGVPSRFSGSGSGTDFTLTISSLQPEDFATYYCQQYWTTPFTFGQGTKVEIKR | – | – | – | – | – | – | 0.47 nM | – | –
3A5 chimera (mu3A5-H; SEQ ID NO: 11) (antibody, V domains shown, IgG; also called chimeric 3A5; chimeric antibody) VH: DVQLQESGPGLVNPSQSLSLTCTVTGYSITNDYAWNWIRQFPGNKLEWMGYINYSGYTTYNPSLKSRISITRDTSKNQFFLHLNSVTTEDTATYYCARWDGGLTYWGQGTLVTVSA VL: DIQMTQSPSSLSASVGDRVTITCKASDLIHNWLAWYQQKPGKAPKLLIYGATSLETGVPSRFSGSGSGTDFTLTISSLQPEDFATYYCQQYWTTPFTFGQGTKVEIKR | 0.3 nM | 0.3 nM | 2.3 nM | 2.7 nM | 0.000121 s⁻¹ | 44800 M⁻¹ s⁻¹ | 0.57 nM | – | –

Other lines, results leading:

Kd [1] | Kd (TAT10772 polypeptide [2]) | Kd (5-domain TAT10772 [3]) | Kd (5-domain TAT10772 [4]) | koff (5-domain TAT10772 [4]) | kon (5-domain TAT10772 [4]) | Kd (TAT10772 polypeptide [5]) | binding result (TAT10772 polypeptide [6]) | binding result (TAT10772 polypeptide [7]) | Binder
– | – | – | – | – | – | – | binds | – | 3A5v4b.54 (SEQ ID NO:209) (antibody, V domains shown) VH: EVQLVESGGGLVQPGGSLRLSCAASGYSITNDYAWNWVRQAPGKGLEWVGYINYAGYTTYNPSLKSRFTISRDTSKNTLYLQMNSLRAEDTAVYYCARWTSGLDYWGQGTLVTVSS VL: DIQMTQSPSSLSASVGDRVTITCKASDLIHNWLAWYQQKPGKAPKLLIYGATSLETGVPSRFSGSGSGTDFTLTISSLQPEDFATYYCQQYWTTPFTFGQGTKVEIKR
0.4 nM | 0.5 nM | 2.6 nM | 2.3 nM | 0.000127 s⁻¹ | 55100 M⁻¹ s⁻¹ | – | – | – | 3A5v8 (SEQ ID NO: 205) (antibody, V domains shown, Humanized IgG) VH: EVQLVESGGGLVQPGGSLRLSCAASGYSITNDYAWNWVRQAPGKGLEWVGYINYSGYTTYNPSLKSRFTISRDTSKNTLYLQMNSLRAEDTAVYYCARWTSGLDSWGQGTLVTVSS VL: DIQMTQSPSSLSASVGDRVTITCKASDLIHNWLAWYQQKPGKAPKLLIYGATSLETGVPSRFSGSGSGTDFTLTISSLQPEDFATYYCQQYWTTPFTFGQGTKVEIKR
8.2 nM | 0.6 nM | 10.2 nM | – | – | – | – | – | – | 3A5v5 (SEQ ID NO: 202) (antibody, V domains shown, Humanized IgG) VH: EVQLVESGGGLVQPGGSLRLSCAASGYSITNDYAWNWVRQAPGKGLEWVGYINYSGYTTYNPSLKSRFTISRDTSKNTFYLQMNSLRAEDTAVYYCARWDAGLTYWGQGTLVTVSS VL: DIQMTQSPSSLSASVGDRVTITCKASDLIHNWLAWYQQKPGKAPKLLIYGATSLETGVPSRFSGSGSGTDFTLTISSLQPEDFATYYCQQYWTTPFTFGQGTKVEIKR
1.2 nM | 0.8 nM | 3.3 nM | – | – | – | – | – | – | 3A5v7 (SEQ ID NO: 204) (antibody, V domains shown, Humanized IgG) VH: EVQLVESGGGLVQPGGSLRLSCAASGYSITNDYAWNWVRQAPGKGLEWVGYINYSGYTTYNPSLKSRFTISRDTSKNTLYLQMNSLRAEDTAVYYCARWKSGLDSWGQGTLVTVSS VL: DIQMTQSPSSLSASVGDRVTITCKASDLIHNWLAWYQQKPGKAPKLLIYGATSLETGVPSRFSGSGSGTDFTLTISSLQPEDFATYYCQQYWTTPFTFGQGTKVEIKR
– | – | – | – | – | – | – | – | binds | murine 3A5 anti-TAT10772 antibody (antibody, V domains shown, Murine monoclonal antibody from hybridoma; also called monoclonal antibody 3A5; monoclonal antibody 3A5.3) VH: DVQLQESGPGLVNPSQSLSLTCTVTGYSITNDYAWNWIRQFPGNKLEWMGYINYSGYTTYNPSLKSRISITRDTSKNQFFLHLNSVTTEDTATYYCARWDGGLTYWGQGTLVTVSA VL: DIQMTQSSSFLSVSLGGRVTITCKASDLIHNWLAWYQQKPGNAPRLLISGATSLETGVPSRFSGSGSGNDYTLSIASLQTEDAATYYCQQYWTTPFTFGSGTKLEIK

— patent USRE47223 (Genentech, dated 2019)
